Source: US20220089765A1, “CD31 COMPETITORS AND USES THEREOF” (ENCEFA, priority 2019, published 2022)

Tests used:
[1] = tested on: midbrain dopaminergic (TH+) neurons; assay: MPP+ intoxication model in midbrain cell cultures, survival of DA (TH+) neurons; format: cell-based, Wistar rat
Method: For this purpose, spontaneously occurring DA cell death was prevented by a treatment combining depolarizing concentrations of K^+ (30 mM) and MK801 (5 μM), a glutamate receptor antagonist used to prevent unwanted excitotoxic insult. The cultures were then exposed to 3 μM MPP between 5 and 7 days in vitro (DIV) to achieve a loss of approximately 50% of DA neurons.
Animals were treated in accordance with the Guide for the Care and Use of Laboratory Animals (National Research Council, 1996), European Directive 86/609, and the guidelines of the local institutional animal care and use committee. Cultures were prepared from the ventral mesencephalon of gestational age 15.5 Wistar rat embryos (Janvier Breeding Center, Le Genest St Isle, France). Dissociated cells in suspension obtained by mechanical trituration of midbrain tissue pieces were seeded at a density of 1.2-1.5×10^5 cells/cm^2 onto tissue culture supports precoated with 1 mg/mL polyethylenimine diluted in borate buffer pH 8.3 as described (Michel et al., 1997. J Neurochem. 69(4):1499-507). The cultures were then maintained in N5 medium supplemented with 5 mM glucose, 5% horse serum, and 0.5% fetal calf serum, except for the first 3 DIV, when the concentration of fetal calf serum was 2.5% to favor initial maturation of the cultures (Guerreiro et al., 2008. Mol Pharmacol. 74(4):980-9). They were fed daily by replacing 70% of the medium. Routinely, mesencephalic cultures were established on Nunc 24-well culture plates (Thermofischer Scientific, Rochester, N.Y.). Note that these cultures contain tyrosine hydroxylase (TH)^+ neurons that were exclusively dopaminergic (Traver et al., 2006. Mol Pharmacol. 70(1):30-40). TH^+ neurons represented approximately 1-2% of the total number of neuronal cells present in these cultures. The evaluation of the survival of DA neurons was performed by counting cells immunopositive for TH as described (Toulorge et al., 2011. Faseb J. 25(8):2563-73).
Treatments with MPP were performed in cultures where the spontaneous death process was prevented by long-term exposure to depolarizing concentrations of K^+ (30 mM), in the presence of the glutamate receptor antagonist MK801 (5 μM) to prevent unwanted excitotoxic insults as described previously (Douhou et al., 2001. J Neurochem. 78(1): 163-74). Treatments with MPP and potential neuroprotective molecules were carried out between 5 and 7 DIV.
The cultures were fixed for 12 min using 4% formaldehyde in Dulbecco's phosphate-buffered saline (PBS), then washed twice with PBS before an incubation step at 4° C. for 24 h with the following antibodies. A monoclonal anti-TH antibody diluted 1/5000 (ImmunoStar, Inc., Hudson, Wis.) was used to assess the survival of DA neurons. Antibody was diluted in PBS containing 0.2% Triton X-100. Detection of the primary antibodies was performed with an Alexa Fluor-488 conjugate of an anti-mouse IgG antibody.

[2] = tested on: IL-10; assay: IL-10 levels in mice after intravenous injection (plasma ELISA); conditions: mouse
Method: To test whether the anti-inflammatory properties of agonistic anti-CD38 antibodies were also observe in vivo, we intravenously injected anti-CD38 antibody clone HB7 (15 mg/kg) to mice.
Blood samples collected in collection tube (Microvette® 500 EDTA-K3, […]) were centrifuged at 3000 rotations per minute during 15 minutes. Supernatants (plasma) were collected and transferred into tubes and froze at −80° C. for further analysis. IL-10 levels in plasma samples were assayed using an ELISA IL-10 kit (BioLegend®) according to the indications for use specified by the manufacturer.

B1: sCD31: soluble form of CD31; murine sCD31 with SEQ ID NO: 3 (protein)
chain: MLLALGLTLVLYASLQAEENSFTINSIHMESLPSWEVMNGQQLTLECLVDISTTSKSRSQHRVLFYKDDAMVYNVTSREHTESYVIPQARVFHSGKYKCTVMLNNKEKTTIEYEVKVHGVSKPKVTLDKKEVTEGGVVTVNCSLQEEKPPIFFKIEKLEVGTKFVKRRIDKTSNENFVLMEFPIEAQDHVLVFRCQAGILSGFKLQESEPIRSEYVTVQESFSTPKFEIKPPGMIIEGDQLHIRCIVQVTHLVQEFTEIIIQKDKAIVATSKQSSEAVYSVMAMVEYSGHYTCKVESNRISKASSIMVNITELFPKPKLEFSSSRLDQGELLDLSCSVSGTPVANFTIQKEETVLSQYQNFSKIAEESDSGEYSCTAGIGKVVKRSGLVPIQVCEMLSKPSIFHDAKSEIIKGHAIGISCQSENGTAPITYHLMKAKSDFQTLEVTSNDPATFTDKPTRDMEYQCRADNCHSHPAVFSEILRVRVIAPVDEVVISILSSNEVQSGSEMVLRCSVKEGTSPITFQFYKEKEDRPFHQAVVNDTQAFWHNKQASKKQEGQYYCTASNRASSMRTSPRSSTLAVRVFL
modifications: Soluble CD31 (sCD31)
EC50 of prevention of MPP+-induced DA cell loss ([1]; 3 μM MPP+ between 5 and 7 DIV, sCD31 during the intoxication period): 0.036 µg/mL
neuroprotective effect against MPP+-induced DA cell death ([1]; 3 μM MPP+ between 5 and 7 DIV, test substance up to 1 μg/mL): prevented
neuroprotective effect in the presence of antagonistic anti-CD38 antibody clone AT13/5 ([1]; 3 μM MPP+, test substance 1 μg/mL, AT13/5 1 μg/mL): antagonized
neuroprotective effect in the presence of anti-CD31 antibody clone Moon-1 ([1]; 3 μM MPP+, test substance 1 μg/mL, Moon-1 1 μg/mL): antagonized
neuroprotective effect in the presence of antagonistic anti-CD38 antibody clone OKT10 ([1]; 3 μM MPP+, test substance 1 μg/mL, OKT10 1 μg/mL): antagonized
neuroprotective effect in the presence of endosidin2 ([1]; 3 μM MPP+, test substance 1 μg/mL, endosidin2 40 μM): antagonized
neuroprotective effect in the presence of the tyrosine kinase inhibitor genistein ([1]; 3 μM MPP+, test substance 1 μg/mL, genistein 10 nM): antagonized
neuroprotective effect in the presence of the lysosomal exocytosis inhibitor vacuolin-1 ([1]; 3 μM MPP+, test substance 1 μg/mL, vacuolin-1 10 μM): antagonized
release of IL-10 in vivo (conclusion in words) [2]: strong release
